Data as given in US20200024322A1 (Eli Lilly, published 2020).
Positions count from the first letter of the chain named. Numbered stars: 1 amine (or outer) side, 2 acyl side, 3 side chain; on linkers, the order of the positions; unused ones are H or OH. Square brackets hold non-standard residues; d marks the D form. Side chains are listed from the residue outwards. Ends that are not written are not given here. * marks the point of attachment. C20 diacid = O=C(O)CCCCCCCCCCCCCCCCCCC(=O)*; γGlu = O=C(O)[C@H](CCC(=O)[*:2])N[*:1]; αMeL = CC(C)C[C@](C)(N)C(=O)O; αMeK = C[C@](N)(CCCCN)C(=O)O; AEEA = NCCOCCOCC(=O)O; Aib = CC(C)(N)C(=O)O

T1: human GIP receptor (human, UniProt P48546 22-466)
T1 construct: whole, on cells; also called hGIPR; hGIP-R
T1 sequence (looked up): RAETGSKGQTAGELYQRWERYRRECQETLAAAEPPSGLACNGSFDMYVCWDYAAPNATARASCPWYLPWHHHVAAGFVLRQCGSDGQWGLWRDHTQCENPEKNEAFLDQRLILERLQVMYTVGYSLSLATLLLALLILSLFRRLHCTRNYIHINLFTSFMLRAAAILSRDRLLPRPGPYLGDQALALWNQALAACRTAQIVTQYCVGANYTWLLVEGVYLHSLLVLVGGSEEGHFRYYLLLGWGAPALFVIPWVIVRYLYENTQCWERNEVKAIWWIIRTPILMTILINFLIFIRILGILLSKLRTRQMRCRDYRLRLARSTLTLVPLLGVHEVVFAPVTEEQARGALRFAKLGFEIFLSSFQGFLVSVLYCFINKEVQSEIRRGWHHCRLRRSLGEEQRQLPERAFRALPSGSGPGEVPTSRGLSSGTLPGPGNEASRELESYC

T2: human GIP receptor (human, UniProt P48546 22-466)
T2 construct: whole, on cells; Used as crude membranes of stably transfected CHO cells; also called hGIPR
T2 sequence (looked up): T1 sequence (looked up)

B1: Example 253 (peptide)
peptide: YXEGTFTSDYSILLDKKAQAAFIEYLIEGGPSSGAPPPS
modifications: Aib2; K17((2-[2-(2-Amino-ethoxy)-ethoxy]-acetyl)2-(γ-Glu)-CO-(CH2)18-CO2H); C-terminal NH2
B2: Example 22 (peptide)
peptide: Y[Aib]EGTFTSDYSI[αMeL]LDEK([AEEA-AEEA-γGlu-C20 diacid])AQ[αMeK]AFIEYLLE[Aib]GPSSGAPPPS-NH2
modifications: N-terminus assumed
SMILES: CC[C@H](C)[C@H](NC(=O)[C@H](Cc1ccccc1)NC(=O)[C@H](C)NC(=O)[C@](C)(CCCCN)NC(=O)[C@H](CCC(N)=O)NC(=O)[C@H](C)NC(=O)[C@H](CCCCNC(=O)COCCOCCNC(=O)COCCOCCNC(=O)CC[C@H](NC(=O)CCCCCCCCCCCCCCCCCCC(=O)O)C(=O)O)NC(=O)[C@H](CCC(=O)O)NC(=O)[C@H](CC(=O)O)NC(=O)[C@H](CC(C)C)NC(=O)[C@](C)(CC(C)C)NC(=O)[C@@H](NC(=O)[C@H](CO)NC(=O)[C@H](Cc1ccc(O)cc1)NC(=O)[C@H](CC(=O)O)NC(=O)[C@H](CO)NC(=O)[C@@H](NC(=O)[C@H](Cc1ccccc1)NC(=O)[C@@H](NC(=O)CNC(=O)[C@H](CCC(=O)O)NC(=O)C(C)(C)NC(=O)[C@@H](N)Cc1ccc(O)cc1)[C@@H](C)O)[C@@H](C)O)[C@@H](C)CC)C(=O)N[C@@H](CCC(=O)O)C(=O)N[C@@H](Cc1ccc(O)cc1)C(=O)N[C@@H](CC(C)C)C(=O)N[C@@H](CC(C)C)C(=O)N[C@@H](CCC(=O)O)C(=O)NC(C)(C)C(=O)NCC(=O)N1CCC[C@H]1C(=O)N[C@@H](CO)C(=O)N[C@@H](CO)C(=O)NCC(=O)N[C@@H](C)C(=O)N1CCC[C@H]1C(=O)N1CCC[C@H]1C(=O)N1CCC[C@H]1C(=O)N[C@@H](CO)C(N)=O
B3: Example 229 (peptide)
peptide: YXEGTXTSDYSXLDEKAQXEFIXYLIEGGPSSGAPPPS
modifications: Aib2; αMeF(2F)6; αMeL12; K16((2-[2-(2-Amino-ethoxy)-ethoxy]-acetyl)2-(γ-Glu)-CO-(CH2)18-CO2H); Aib19; D-Glu23; C-terminal NH2 (positions counted on this 38-residue peptide)
B4: Example 330 (peptide)
peptide: Y[Aib]EGTFTSDYSILLDEK([AEEA-AEEA-γGlu-C20 diacid])AQ[Aib]AFIEYLIAGGPSSGAPPPS-NH2
modifications: N-terminus assumed
SMILES: CC[C@H](C)[C@H](NC(=O)[C@H](CC(C)C)NC(=O)[C@H](Cc1ccc(O)cc1)NC(=O)[C@H](CCC(=O)O)NC(=O)[C@@H](NC(=O)[C@H](Cc1ccccc1)NC(=O)[C@H](C)NC(=O)C(C)(C)NC(=O)[C@H](CCC(N)=O)NC(=O)[C@H](C)NC(=O)[C@H](CCCCNC(=O)COCCOCCNC(=O)COCCOCCNC(=O)CC[C@H](NC(=O)CCCCCCCCCCCCCCCCCCC(=O)O)C(=O)O)NC(=O)[C@H](CCC(=O)O)NC(=O)[C@H](CC(=O)O)NC(=O)[C@H](CC(C)C)NC(=O)[C@H](CC(C)C)NC(=O)[C@@H](NC(=O)[C@H](CO)NC(=O)[C@H](Cc1ccc(O)cc1)NC(=O)[C@H](CC(=O)O)NC(=O)[C@H](CO)NC(=O)[C@@H](NC(=O)[C@H](Cc1ccccc1)NC(=O)[C@@H](NC(=O)CNC(=O)[C@H](CCC(=O)O)NC(=O)C(C)(C)NC(=O)[C@@H](N)Cc1ccc(O)cc1)[C@@H](C)O)[C@@H](C)O)[C@@H](C)CC)[C@@H](C)CC)C(=O)N[C@@H](C)C(=O)NCC(=O)NCC(=O)N1CCC[C@H]1C(=O)N[C@@H](CO)C(=O)N[C@@H](CO)C(=O)NCC(=O)N[C@@H](C)C(=O)N1CCC[C@H]1C(=O)N1CCC[C@H]1C(=O)N1CCC[C@H]1C(=O)N[C@@H](CO)C(N)=O
B5: Example 232 (peptide)
peptide: YXEGTXTSDXSIXLDXKAQXEFIXYLIEGGPSSGAPPPS
modifications: Aib2; αMeF(2F)6; 4Pal10; αMeL13; Orn16; K17((2-[2-(2-Amino-ethoxy)-ethoxy]-acetyl)2-(γ-Glu)-CO-(CH2)16-CO2H); Aib20; D-Glu24; C-terminal NH2
B6: Example 233 (peptide)
peptide: B5 peptide
modifications: Aib2; αMeF(2F)6; 4Pal10; αMeL13; Dab16; K17((2-[2-(2-Amino-ethoxy)-ethoxy]-acetyl)2-(γ-Glu)-CO-(CH2)16-CO2H); Aib20; D-Glu24; C-terminal NH2
B7: Example 234 (peptide)
peptide: B5 peptide with X13L
modifications: Aib2; αMeF(2F)6; 4Pal10; Dab16; K17((2-[2-(2-Amino-ethoxy)-ethoxy]-acetyl)2-(γ-Glu)-CO-(CH2)16-CO2H); Aib20; D-Glu24; C-terminal NH2

Columns and labels:
[1] = biological target: T3, human GLP-1 receptor (human, UniProt P43220 24-463); assay: [125I]-GLP-1 competition SPA, hGLP-1R membranes
T3 construct: whole, on cells; also called hGLP-1R; hGLP1R
Description: The binding buffer contains 25 mM HEPES, pH 7.4, 2.5 mM CaCl₂, 1 mM MgCl₂, 0.1% (w/v) bacitracin, 0.003% (w/v) TWEEN®-20, and Roche Complete™ Protease Inhibitors without EDTA.
(§1) Data are analyzed using four-parameter (curve maximum, curve minimum, IC₅₀, Hill slope) nonlinear regression routines (Genedata Screener, version 12.0.4, Genedata AG, Basal, Switzerland). […] Values for Kᵢ are reported as the geometric mean, with error expressed as the standard error of the mean (SEM) and n is equal to the number of independent replicates (determined in assays performed on different days). Geometric Means are calculated as follows: […]

[2] = biological target: T1, human GIP receptor; assay: [125I]-GIP competition SPA, hGIPR membranes
Description: The binding buffer contains 25 mM HEPES, pH 7.4, 2.5 mM CaCl₂, 1 mM MgCl₂, 0.1% (w/v) bacitracin, 0.003% (w/v) TWEEN®-20, and Roche Complete™ Protease Inhibitors without EDTA. […] Plates are sealed and mixed on a plate shaker (setting 6) for 1 minute and read with a PerkinElmer Trilux MicroBeta® scintillation counter after 2.5 to 12 hours of incubation/settling time at room temperature.
as §1

[3] = biological target: T2, human GIP receptor; assay: SPA, [125I]-GIP displacement, hGIPR membranes
[4] = biological target: T4, human glucagon receptor (human, UniProt P47871 26-477); assay: SPA, [125I]-Gcg displacement, hGcgR membranes
T4 construct: whole, on cells; Used as crude membranes of stably transfected HEK293 cells; also called hGcgR; hGLcgR
T4 sequence (P47871 26-477): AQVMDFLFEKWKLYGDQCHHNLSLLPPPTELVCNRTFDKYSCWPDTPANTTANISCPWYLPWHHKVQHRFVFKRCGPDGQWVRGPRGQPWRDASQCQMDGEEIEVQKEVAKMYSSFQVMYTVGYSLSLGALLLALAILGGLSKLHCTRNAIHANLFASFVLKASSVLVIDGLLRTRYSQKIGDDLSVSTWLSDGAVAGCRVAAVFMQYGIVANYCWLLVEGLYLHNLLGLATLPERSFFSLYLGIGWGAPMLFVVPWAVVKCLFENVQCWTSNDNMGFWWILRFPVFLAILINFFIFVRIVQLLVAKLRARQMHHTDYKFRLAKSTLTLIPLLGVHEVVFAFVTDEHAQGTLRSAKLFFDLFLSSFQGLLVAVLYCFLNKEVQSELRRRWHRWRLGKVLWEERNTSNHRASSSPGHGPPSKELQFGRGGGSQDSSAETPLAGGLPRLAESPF

[5] = biological target: T5, human GLP-1 receptor (human, UniProt P43220 24-463); assay: SPA, [125I]-GLP-1 displacement, hGLP-1R membranes
T5 construct: whole, on cells; Used as crude membranes of stably transfected HEK293 cells; also called hGLP1R; hGLP-1R

| Binder | Ki [1] | Ki [2] | Ki [3] | Ki [4] | Ki [5] |
| --- | --- | --- | --- | --- | --- |
| B1 | 2.57 nM | 0.138 nM | – | – | – |
| B2 | – | – | 0.624 nM | 53.4 nM | 23.1 nM |
| B3 | 36.2 nM | 2.47 nM | – | – | – |
| B4 | – | 0.114 nM | – | – | – |
| B5 | 5.62 nM | 0.0544 nM | – | – | – |
| B6 | 5.99 nM | 0.0445 nM | – | – | – |
| B7 | 10.9 nM | 0.0563 nM | – | – | – |
